Assay [1] addresses T1, full-length human Robo 4 (on cells) (human, UniProt Q8WZ75 28-1007).
T1 construct: also called CHO-Robo 4; Robo 4 on HUVECs
T1 sequence: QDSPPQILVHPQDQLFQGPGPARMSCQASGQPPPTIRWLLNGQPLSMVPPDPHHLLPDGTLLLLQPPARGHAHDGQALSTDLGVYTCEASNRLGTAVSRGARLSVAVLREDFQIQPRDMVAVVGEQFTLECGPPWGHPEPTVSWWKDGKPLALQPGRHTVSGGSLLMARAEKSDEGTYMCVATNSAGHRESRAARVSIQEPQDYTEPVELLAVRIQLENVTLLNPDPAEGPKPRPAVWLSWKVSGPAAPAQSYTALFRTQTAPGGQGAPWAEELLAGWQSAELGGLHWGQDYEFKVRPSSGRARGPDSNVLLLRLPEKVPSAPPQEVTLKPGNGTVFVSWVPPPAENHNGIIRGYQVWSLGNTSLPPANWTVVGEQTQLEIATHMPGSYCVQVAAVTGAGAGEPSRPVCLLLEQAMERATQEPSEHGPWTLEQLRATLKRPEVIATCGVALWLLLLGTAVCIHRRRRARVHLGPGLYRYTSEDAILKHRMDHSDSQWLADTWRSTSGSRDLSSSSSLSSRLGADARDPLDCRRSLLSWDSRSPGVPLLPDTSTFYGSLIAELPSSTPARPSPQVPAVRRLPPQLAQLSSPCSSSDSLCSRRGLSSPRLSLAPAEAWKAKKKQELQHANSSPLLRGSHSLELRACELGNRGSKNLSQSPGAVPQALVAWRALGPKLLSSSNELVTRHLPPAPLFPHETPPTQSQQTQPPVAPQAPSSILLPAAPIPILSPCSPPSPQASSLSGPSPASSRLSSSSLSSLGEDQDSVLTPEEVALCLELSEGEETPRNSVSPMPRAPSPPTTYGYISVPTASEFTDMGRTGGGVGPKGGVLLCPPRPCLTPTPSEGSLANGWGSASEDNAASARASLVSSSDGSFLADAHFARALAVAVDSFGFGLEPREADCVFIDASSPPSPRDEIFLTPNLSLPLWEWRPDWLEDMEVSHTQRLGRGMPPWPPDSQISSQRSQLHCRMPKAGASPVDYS
In words: flow cytometry on CHO cells stably expressing full-length human Robo 4. How it is done: Binding of anti-Robo 4 IgGs was tested on CHO cells stably expressing full-length human Robo 4 (CHO-Robo 4). Briefly, cells were harvested, counted and checked for viability.
A general note: A flow cytometer gives signals particle by particle.

Assay [2] concerns the target T2, recombinant cynomolgus Robo 4 ECD fused to AcTEV protease recognition site, Avi- and 6xHis-tag (cynomolgus).
T2 construct: Biotinylated in the avidity assay
T2 chain: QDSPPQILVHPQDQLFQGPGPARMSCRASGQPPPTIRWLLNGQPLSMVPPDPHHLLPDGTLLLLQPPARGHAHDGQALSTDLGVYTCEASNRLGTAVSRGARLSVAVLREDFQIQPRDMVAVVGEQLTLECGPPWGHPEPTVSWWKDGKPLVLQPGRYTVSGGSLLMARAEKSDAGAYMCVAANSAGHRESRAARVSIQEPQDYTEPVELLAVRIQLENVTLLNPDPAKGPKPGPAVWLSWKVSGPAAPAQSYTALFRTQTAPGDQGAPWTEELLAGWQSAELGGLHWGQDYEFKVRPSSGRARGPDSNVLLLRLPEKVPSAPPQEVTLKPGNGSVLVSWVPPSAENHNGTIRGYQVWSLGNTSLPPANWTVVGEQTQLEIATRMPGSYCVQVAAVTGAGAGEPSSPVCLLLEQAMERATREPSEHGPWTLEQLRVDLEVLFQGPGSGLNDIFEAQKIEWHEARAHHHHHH
In words: SPR Biacore T100, IgG captured via anti-human Fab, antigen as analyte (affinity). The procedure:
(§1) All surface plasmon resonance (SPR) experiments are performed on a Biacore T100 at 25° C. with HBS-EP as running buffer (0.01 M HEPES pH 7.4, 0.15 M NaCl, 3 mM EDTA, 0.005% Surfactant P20 (Biacore)).
(§2) Anti Robo 4 antibodies were captured for 60 s at 50 nM. Recombinant human, murine and cynomolgus Robo 4 were passed at a concentration range from 0.46-1000 nM with a flow of 30 μl/min through the flow cells over 90 s. The dissociation was monitored for 120 s. Bulk refractive index differences were corrected for by subtracting the response obtained on a reference flow cell. Here, the antigens were flown over a surface with immobilized anti-human Fab specific antibody on which HBS-EP has been injected rather than the antibodies.
(§3) Kinetic constants were derived using the Biacore T100 Evaluation Software (vAA, Biacore), to fit rate equations for 1:1 Langmuir binding by numerical integration.

The target of assay [3] is T3, murine (mu) Robo 4 ECD-PreS-Avi-His (mouse).
T3 construct: also called recombinant murine Robo 4; murine Robo 4
T3 chain: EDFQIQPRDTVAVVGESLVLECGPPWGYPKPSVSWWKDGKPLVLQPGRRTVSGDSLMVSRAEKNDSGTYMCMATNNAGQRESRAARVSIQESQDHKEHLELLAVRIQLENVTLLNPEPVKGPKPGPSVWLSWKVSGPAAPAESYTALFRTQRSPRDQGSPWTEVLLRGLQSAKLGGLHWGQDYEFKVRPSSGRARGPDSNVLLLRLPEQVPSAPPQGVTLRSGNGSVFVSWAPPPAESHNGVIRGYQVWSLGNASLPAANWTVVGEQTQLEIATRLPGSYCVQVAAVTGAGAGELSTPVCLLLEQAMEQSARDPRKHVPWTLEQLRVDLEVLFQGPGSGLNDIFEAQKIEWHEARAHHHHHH
Described as above. The procedure: as §1, §2, §3

Usually EC50 stands for the concentration giving half of the maximal effect. Lower therefore signals a more potent agent. In general, Kd refers to the free concentration of one partner at which half of the binding sites on the other are occupied at equilibrium, for simple one-to-one binding. Broadly, the koff is the first-order rate constant of dissociation. The term kon denotes the rate constant with which the complex forms.

B1: 7G2 anti-Robo 4 IgG (antibody, V domains shown)
VH: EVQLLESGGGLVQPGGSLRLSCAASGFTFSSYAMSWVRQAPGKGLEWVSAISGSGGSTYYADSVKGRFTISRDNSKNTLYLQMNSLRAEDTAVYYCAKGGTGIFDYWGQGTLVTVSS
VL: EIVLTQSPGTLSLSPGERATLSCRASQSVSSSYLAWYQQKPGQAPRLLIYGASSRATGIPDRFSGSGSGTDFTLTISRLEPEDFAVYYCQQGQLPPRTFGQGTKVEIK
notes: also called 7G2 IgG
Turning to B1, in assay [1], a half-maximal response (EC50) required 4.6 nM. Further, in assay [2], the Kd came out at 64.1 nM, the koff is 0.00116 s⁻¹ and the kon was 18100 M⁻¹ s⁻¹.

B2: 01F05 anti-Robo 4 IgG (antibody, V domains shown)
VH: QVQLKQSGAELVKPGASVKISCKTSVYTFTYGYMHWVEQKPGQGLEWIGRIDPDSGNSMYNQKFQGRATLTRDKSSSTVYMELRSLTSEDSAVYYCARSMRYSGYRDYALDLWGQGTQVTVSS
VL: QLVLTQSPSASASLGASVKLTCTLSSQHSSYGITWLQQHPDKAPKYVMYLKSDGSHTKGADIPDRFSGSSSGVHRYLSISNVQPEDEAIYFCVTYDSTHVFGSGTQLTVLG
notes: also called 01F05 IgG
In assay [1], B2 displayed an EC50 of 6.1 nM. Further, in assay [2], the Kd is 144 nM, the koff stood at 0.00191 s⁻¹ and the kon came to 13300 M⁻¹ s⁻¹. In addition, in assay [3], the Kd is 10.1 nM, the koff was 0.00031 s⁻¹ and the kon worked out at 30800 M⁻¹ s⁻¹.

B3: 01F09 anti-Robo 4 IgG (antibody, V domains shown)
VH: QIQLQESGPGLVKPSQSLSLTCSVTGYSISSGSLWTWIRQFPGNNLEWMGYISYAGGIDYNPSLTSRISITRDTSRNQFFLQLESVTTQDTATYYCATPGGYPFHFDYWGQGTMVTVSS
VL: QPVLTQSPSASASLGASVKLTCTLNSQFSTYNIGWYQQHRDKPPKYVMFVKGDGGHSKADGIPDRFSGSSSGADRYLTISNIQAEDEAIYFCGADYNNAGQYGCVFGSGTHFTVLG
notes: also called 01F09 IgG
For the molecule B3, in assay [1], the midpoint of the response, the EC50, lay at 2.5 nM. In assay [2], the Kd amounted to 474 nM, the koff is 0.0315 s⁻¹ and the on-rate constant (kon) was found to be 66600 M⁻¹ s⁻¹. In assay [3], this molecule gave a Kd of 256 nM, a koff of 0.0307 s⁻¹ and an on-rate constant (kon) of 120000 M⁻¹ s⁻¹.

B4: 01E06 anti-Robo 4 IgG (antibody, V domains shown)
VH: EVQLVESGGGLSQPGNSLKLSCEASGFTFRNYDMSWVRQAPGKGLEWVAYISSGGGPIYYVDAVKGRFTISRDNAKNLLFLQMNNLRSEDTAVYYCARDLADIGVFDYWGQGTMVTVSS
VL: DFKMTQSPDILSPSLGESVTITCQSSQNIYSNLAWYQQKPGEHPKLLIYTASILADGIPSRFTGSGSGTQFSLKISSLQPDDVANYYCQQYVYYRTFGPGTKLEIK
notes: also called 01E06 IgG
As to B4, in assay [1], a half-maximal effect (EC50) was put at 1.1 nM. Besides, in assay [2], the Kd was 0.96 nM, the koff is 8e-05 s⁻¹ and the kon worked out at 80400 M⁻¹ s⁻¹. In assay [3], this molecule yielded a Kd of 166 nM, an off-rate (koff) of 0.0128 s⁻¹ and an on-rate constant (kon) of 77100 M⁻¹ s⁻¹.

These data come from US20180282410A1 (Hoffmann-La Roche, published 2018).
